In patent US20230398228A1, “ERIBULIN-BASED ANTIBODY-DRUG CONJUGATES AND METHODS OF USE” (EISAI R&D MANAGEMENT CO., LTD., priority 2016, published 2023):
Where “and” joins values, the source holds several entries; their conditions need not be identical. Equal entries are not always repeated. Where two headings read alike, the source gives them in different places.

Key:
[1] = system: cancer associated fibroblasts (α-smooth muscle actin) in H2110 xenograft; conditions: 5 mg/kg single dose
Procedure: Prior to staining, slides were dewaxed and antigen was retreived in a Lab Vision™ PT Module (Thermo Scientific), in citrate buffer (pH 6.0) pre-warmed to 85° C., using the following program: warm to 97° C.; incubate at 97° C. for 30 min; and cool to 60° C. Slides were then transferred to double distilled water at room temperature for 5 min. Staining was performed in a Lab Vision™ Autostainer 360 (Thermo Scientific). Briefly, slides were washed twice in 1×Tris-buffered saline/Tween-20 (TBST) for 6 min/wash. Tissue sections were then incubated in blocking buffer (300 μL) (10% goat serum (Jackson Immunoresearch Laboratory Inc., Cat No. 005-000-121) diluted in 3% bovine serum albumin (BSA)-phosphate buffered saline (PBS)) for 1 hour, incubated in conjugated antibody (200 μL) (Table 38) for 1 hour, and washed five times in 1×TBST for 6 min/wash. Slides were counterstained with DAPI in mounting media, and coverslipped slides were allowed to harden for 30 min. Slides were processed on a Panoramic MIDI scanner (3[sequence]), and IHC images were analyzed using Halo software (Indica Labs).
Collected tumor samples were processed on slides, and cancer associated fibroblast (CAF) expression was analyzed by IHC.

[2] = Maximum tolerated dose of MORAb-202 in CD-1 mice; assay type: in vivo, mouse
Procedure: Body weight was measured prior to dose on the dosing day, 24 hours post dose, and three times a week thereafter. […] Two weeks after dosing, the terminal body weight was measured and recorded. Euthanized mice at the end of the study (and if any mouse euthanized or found dead during the study) were processed for necropsy. Organs were examined for signs of tissue damage.

[3] = system: OVCAR3 cells; test: Crystal Violet cytotoxicity assay (Examples 1 and 2), OVCAR3; conditions: Example 1
Procedure: Typically, test reagents were serial diluted 1:4 in 2 mL deep-well dilution plates, starting at 1 μM (10 dilutions total). 100 μL of diluted samples were added to the cell plates (starting concentration of test samples at 500 nM). […] Medium was discarded, plates were washed once with 200 μL DPBS, stained with 50 μL of 0.2% Crystal Violet solution at room temperature for 15 min, and then washed extensively with tap water. Plates were air-dried, and Crystal Violet was dissolved with 200 μL of 1% SDS solution. Plates were read at 570 nm. Data was analyzed using GraphPad Prism 6. Assays were performed using a seeding density of 1,000 cells per well and compound exposure was for a total of 5 days. When shorter-term exposure was desired, medium containing cytotoxic agents was removed after 4 hours and replaced with fresh growth medium prior to 5-day incubation. For OVCAR3, CaOV3, and NCI-H2110, cells were seeded at 3,000 cells/well and incubated for 5 days with ADC.
SJSA-1 cells are a human osteosarcoma tumor cell line that are negative for folate receptor alpha.
Typically, test reagents were serially-diluted 1:4 in 2 mL deep-well dilution plates, starting at 1 μM (10 dilutions total). 100 μL of diluted samples were added to the cell plates (starting concentration of test samples at 100 nM). […] Plates were read at 570 nm. Data was analyzed using GraphPad Prism 6.

[4] = system: LXFA-737 NSCLC patient-derived xenograft; test: NSCLC PDx model LXFA-737; assay type: in vivo, mouse; conditions: for Tumor Growth Inhibition: vehicle = 100
From the text: Tumor implantation: NSCLC tumor fragments were obtained from LXFA-737 tumor xenografts serially passaged in nude mice. After removal from donor mice, tumors were cut into fragments (3-4 mm edge length) and placed in phosphate-buffered saline (PBS) containing 10% penicillin/streptomycin. Recipient animals were anesthetized by inhalation of isoflurane and received unilateral or bilateral tumor implants subcutaneously in the flank. Tumor xenografts were implanted with one or two tumors per mouse at a take rate <65%. In the case of a bilateral take, one of these tumors was explanted prior to randomization. Animals and tumor implants were monitored daily until solid tumor growth was detectable in a sufficient number of animals. At randomization, the volume of growing tumors was determined. […] Animals not used for experiments were euthanized.
Body weight was measured prior to dose on each dosing day, and two times per week during the study. At the end of the study, the terminal body weight was measured and recorded.

[5] = system: HL-60 cells; test: Bystander killing assay, Nuclight Red HL-60; assay type: cell-based, human
Procedure: The day before study commencement, Nuclight™ Green (NLG) IGROV1 cells were seeded at 5,000 cells/well into 96-well round bottom plates, followed by centrifugation at 1,000 rpm for 3 min at room temperature to ensure formation of a cell pellet. The plate was placed in the vessel of an Incucyte Zoom® (EssenBio science) and incubated at 37° C./5% CO2 overnight. The program was set to collect images of cell growth, and to determine total numbers of nuclear green-stained and nuclear red-stained cells as well as phase-confluency of the cells every two hours. […] 50 μL of cytotoxin solution was added to the NLG-IGROV1 cells and incubated for 30 min. During the incubation period, Nuclight™ Red (NLR) HL-60 (FR^neg) cells were diluted to 2×10^5, 1×10^5 or 5×10^4 cell/mL with fresh media. 50 μL of the NLR-HL60 cell suspension or medium alone was added to the NLG-IGROV1 wells, followed by centrifugation at 1,000 rpm for 3 min at room temperature to ensure re-formation of the cell pellet. The plate was placed back into the vessel of Incucyte Zoom (EssenBio science) and incubated at 37° C./5% CO2 for up to 5 days. Relative cell growth of NLG-IGROV1 was determined by comparison to no ADC or free drug alone added samples using green cell counts. Relative cell growth of HL60 was done similarly, except that red cell count was determined. Determination of IC50 values for both NLG-IGROV1 and NLR-HL-60 was determined using Prism (GraphPad).
In order to assess bystander killing activity, an assay was set up using two labeled cell lines. […] Cytotoxicity was monitored by an Incucyte Zoom® cell imager.

[6] = system: BT-474 cells; test: Crystal Violet cytotoxicity assay (Example 4), BT-474; assay type: cell-based, human
Procedure: Test reagents were serial diluted 1:3 in 2 mL deep-well dilution plates, starting at 200 nM (10 dilutions total). […] Medium was then discarded. […] Plates were read at 570 nm. Data was analyzed using GraphPad Prism 6.

[7] = system: OD-BRE-0631 TNBC patient-derived xenograft; conditions: 5 mg/kg single dose, five days post-treatment
[8] = 5 mg/kg single dose i.v., Day 21, n = 6
[9] = 5 mg/kg single dose i.v., Day 32, n = 6
[10] = 5 mg/kg single dose i.v., Day 74, n = 6

MORAb-003-maleimido-PEG2-Val-Cit-pAB-eribulin [MORAb-202]
CAF network structure (anti-α-SMA-FITC staining), in words ([1]; Day 3 and Day 5): prominent
CAF network structure (anti-α-SMA-FITC staining), in words ([1]; by Day 7): significantly diminished
Body weight of individual mice ([2]; 10 mg/kg single bolus i.v., CD-1 mice, day 0 post Rx): 22.60 g and 23.50 g and 21.80 g
Body weight, group mean ([2]; 10 mg/kg single bolus i.v., CD-1 mice, day 0 post injections): 22.6 g
Body weight of individual mice ([2]; 10 mg/kg single bolus i.v., CD-1 mice, day 1 post Rx): 22.80 g and 23.80 g
Body weight, group mean ([2]; 10 mg/kg single bolus i.v., CD-1 mice, day 1 post injections): 23.2 g
Body weight of individual mice ([2]; 10 mg/kg single bolus i.v., CD-1 mice, day 2 post Rx): 23.30 g and 24.00 g and 22.90 g
Body weight, group mean ([2]; 10 mg/kg single bolus i.v., CD-1 mice, day 2 post injections): 25.4 g
Body weight of individual mice ([2]; 10 mg/kg single bolus i.v., CD-1 mice, day 4 post Rx): 23.30 g (2×) and 23.90 g
Body weight, group mean ([2]; 10 mg/kg single bolus i.v., CD-1 mice, day 4 post injections): 23.5 g
Body weight of individual mice ([2]; 10 mg/kg single bolus i.v., CD-1 mice, day 7 post Rx): 24.80 g and 25.20 g and 24.90 g
Body weight, group mean ([2]; 10 mg/kg single bolus i.v., CD-1 mice, day 7 post injections): 25.0 g
Body weight of individual mice ([2]; 10 mg/kg single bolus i.v., CD-1 mice, day 9 post Rx): 24.90 g and 25.30 g and 25.00 g
Body weight, group mean ([2]; 10 mg/kg single bolus i.v., CD-1 mice, day 9 post injections): 25.1 g
Body weight of individual mice ([2]; 10 mg/kg single bolus i.v., CD-1 mice, day 11 post Rx): 24.30 g (2×) and 25.10 g
Body weight, group mean ([2]; 10 mg/kg single bolus i.v., CD-1 mice, day 11 post injections): 24.6 g
Body weight of individual mice ([2]; 10 mg/kg single bolus i.v., CD-1 mice, day 14 post Rx): 25.80 g and 25.60 g and 25.70 g
Body weight, group mean ([2]; 10 mg/kg single bolus i.v., CD-1 mice, day 14 post injections): 25.7 g
Body weight of individual mice ([2]; 20 mg/kg single bolus i.v., CD-1 mice, day 0 post Rx): 27.40 g and 26.20 g and 21.00 g
Body weight, group mean ([2]; 20 mg/kg single bolus i.v., CD-1 mice, day 0 post injections): 24.9 g
Body weight of individual mice ([2]; 20 mg/kg single bolus i.v., CD-1 mice, day 1 post Rx): 28.80 g and 27.50 g and 21.40 g
Body weight, group mean ([2]; 20 mg/kg single bolus i.v., CD-1 mice, day 1 post injections): 25.9 g
Body weight of individual mice ([2]; 20 mg/kg single bolus i.v., CD-1 mice, day 2 post Rx): 29.30 g and 29.00 g and 22.10 g
Body weight, group mean ([2]; 20 mg/kg single bolus i.v., CD-1 mice, day 2 post injections): 26.8 g
Body weight of individual mice ([2]; 20 mg/kg single bolus i.v., CD-1 mice, day 4 post Rx): 30.20 g and 31.00 g
Body weight, group mean ([2]; 20 mg/kg single bolus i.v., CD-1 mice, day 4 post injections): 28.1 g
Body weight of individual mice ([2]; 20 mg/kg single bolus i.v., CD-1 mice, day 7 post Rx): 29.60 g and 32.00 g and 24.00 g
Body weight, group mean ([2]; 20 mg/kg single bolus i.v., CD-1 mice, day 7 post injections): 28.5 g
Body weight of individual mice ([2]; 20 mg/kg single bolus i.v., CD-1 mice, day 9 post Rx): 30.80 g and 31.70 g and 23.40 g
Body weight, group mean ([2]; 20 mg/kg single bolus i.v., CD-1 mice, day 9 post injections): 28.6 g
Body weight of individual mice ([2]; 20 mg/kg single bolus i.v., CD-1 mice, day 11 post Rx): 31.00 g and 32.40 g and 23.80 g
Body weight, group mean ([2]; 20 mg/kg single bolus i.v., CD-1 mice, day 11 post injections): 29.1 g
Body weight of individual mice ([2]; 20 mg/kg single bolus i.v., CD-1 mice, day 14 post Rx): 33.20 g and 32.40 g and 24.10 g
Body weight, group mean ([2]; 20 mg/kg single bolus i.v., CD-1 mice, day 14 post injections): 29.9 g
Body weight of individual mice ([2]; 40 mg/kg single bolus i.v., CD-1 mice, day 0 post Rx): 23.80 g and 23.30 g and 21.70 g
Body weight, group mean ([2]; 40 mg/kg single bolus i.v., CD-1 mice, day 0 post injections): 22.9 g
Body weight of individual mice ([2]; 40 mg/kg single bolus i.v., CD-1 mice, day 1 post Rx): 23.60 g and 23.50 g and 21.60 g
Body weight, group mean ([2]; 40 mg/kg single bolus i.v., CD-1 mice, day 1 post injections): 22.9 g
Body weight of individual mice ([2]; 40 mg/kg single bolus i.v., CD-1 mice, day 2 post Rx): 23.60 g and 24.60 g and 21.80 g
Body weight, group mean ([2]; 40 mg/kg single bolus i.v., CD-1 mice, day 2 post injections): 23.3 g
Body weight of individual mice ([2]; 40 mg/kg single bolus i.v., CD-1 mice, day 4 post Rx): 24.40 g and 24.10 g and 22.70 g
Body weight, group mean ([2]; 40 mg/kg single bolus i.v., CD-1 mice, day 4 post injections): 23.7 g
Body weight of individual mice ([2]; 40 mg/kg single bolus i.v., CD-1 mice, day 7 post Rx): 25.10 g and 25.50 g and 23.40 g
Body weight, group mean ([2]; 40 mg/kg single bolus i.v., CD-1 mice, day 7 post injections): 24.7 g
Body weight of individual mice ([2]; 40 mg/kg single bolus i.v., CD-1 mice, day 9 post Rx): 25.80 g and 25.20 g and 23.70 g
Body weight, group mean ([2]; 40 mg/kg single bolus i.v., CD-1 mice, day 9 post injections): 24.9 g
Body weight of individual mice ([2]; 40 mg/kg single bolus i.v., CD-1 mice, day 11 post Rx): 25.30 g and 25.00 g and 23.80 g
Body weight, group mean ([2]; 40 mg/kg single bolus i.v., CD-1 mice, day 11 post injections): 24.7 g
Body weight of individual mice ([2]; 40 mg/kg single bolus i.v., CD-1 mice, day 14 post Rx): 25.70 g and 25.30 g and 26.30 g
Body weight, group mean ([2]; 40 mg/kg single bolus i.v., CD-1 mice, day 14 post injections): 25.8 g
Body weight of individual mice ([2]; 80 mg/kg single bolus i.v., CD-1 mice, day 0 post Rx): 21.80 g and 26.50 g and 25.80 g
Body weight, group mean ([2]; 80 mg/kg single bolus i.v., CD-1 mice, day 0 post injections): 24.7 g
Body weight of individual mice ([2]; 80 mg/kg single bolus i.v., CD-1 mice, day 1 post Rx): 23.10 g and 27.80 g (2×)
Body weight, group mean ([2]; 80 mg/kg single bolus i.v., CD-1 mice, day 1 post injections): 26.2 g
Body weight of individual mice ([2]; 80 mg/kg single bolus i.v., CD-1 mice, day 2 post Rx): 23.30 g and 28.30 g (2×)
Body weight, group mean ([2]; 80 mg/kg single bolus i.v., CD-1 mice, day 2 post injections): 26.6 g
Body weight of individual mice ([2]; 80 mg/kg single bolus i.v., CD-1 mice, day 4 post Rx): 23.50 g and 29.50 g and 28.60 g
Body weight, group mean ([2]; 80 mg/kg single bolus i.v., CD-1 mice, day 4 post injections): 27.2 g
Body weight of individual mice ([2]; 80 mg/kg single bolus i.v., CD-1 mice, day 7 post Rx): 23.30 g and 30.40 g and 30.10 g
Body weight, group mean ([2]; 80 mg/kg single bolus i.v., CD-1 mice, day 7 post injections): 27.9 g
Body weight of individual mice ([2]; 80 mg/kg single bolus i.v., CD-1 mice, day 9 post Rx): 23.60 g and 31.00 g and 30.20 g
Body weight, group mean ([2]; 80 mg/kg single bolus i.v., CD-1 mice, day 9 post injections): 28.3 g
Body weight of individual mice ([2]; 80 mg/kg single bolus i.v., CD-1 mice, day 11 post Rx): 23.10 g and 29.10 g and 29.40 g
Body weight, group mean ([2]; 80 mg/kg single bolus i.v., CD-1 mice, day 11 post injections): 27.2 g
Body weight of individual mice ([2]; 80 mg/kg single bolus i.v., CD-1 mice, day 14 post Rx): 21.70 g and 28.40 g and 28.90 g
Body weight, group mean ([2]; 80 mg/kg single bolus i.v., CD-1 mice, day 14 post injections): 26.3 g
toxicity, in words ([2]; doses up to 80 mg/kg via bolus intravenous administration): no toxicity
maximum tolerated dose (MTD) ([2]; single bolus intravenous dose, CD-1 mice): above 80 mg/kg
body weight loss compared with PBS control, in words ([2]; single i.v. dose 10, 20, 40 or 80 mg/kg): No significant body weight loss
cytotoxicity on OVCAR3 cells, in words [3]: potent cytotoxicity
body weight loss versus vehicle, in words ([4]; 5 mg/kg single dose): no significant body weight loss
Tumor Volume [4, 8]: 22.9 mm^3
Tumor Growth Inhibition [4, 8]: (2.3) %
Tumor Volume [4, 9]: 4.7 mm^3
Tumor Growth Inhibition [4, 9]: (0.3) %
Tumor Volume [4, 10]: 418.3 mm^3
tumor-free mice [4, 10]: (4/6 tumor-free)
mice considered tumor-free at Day 32 ([4]; 5 mg/kg single dose, six mice): Five of the six
mice that remained tumor-free through Day 74 ([4]; 5 mg/kg single dose, six mice): four
anti-tumor activity, in words ([4]; 5 mg/kg single i.v. dose): significant tumor regression
EC50 ([5]; HL-60 (FR-negative) cells alone, read-out: EC50, HL-60): 39.7 nM
EC50 ([5]; HL-60 co-cultured with IGROV1, read-out: EC50, HL-60 (co-culture with IGROV-1)): 0.24 nM
cytotoxicity on BT-474 cells, in words [6]: little killing
cancer associated fibroblast structure by anti-α-SMA-FITC IHC, in words [7]: diminish the structure of cancer associated fibroblasts
tumor cell occupation by IHC with anti-human IgG antibody, in words [7]: occupies folate receptor alpha-expressing tumor cells
